Measurements from US20200297818A1 (ZEALAND PHARMA A S, published 2020).

T1: human GLP-2 receptor (hGLP2-R) (human, UniProt O95838 1-553)
T1 sequence (looked up): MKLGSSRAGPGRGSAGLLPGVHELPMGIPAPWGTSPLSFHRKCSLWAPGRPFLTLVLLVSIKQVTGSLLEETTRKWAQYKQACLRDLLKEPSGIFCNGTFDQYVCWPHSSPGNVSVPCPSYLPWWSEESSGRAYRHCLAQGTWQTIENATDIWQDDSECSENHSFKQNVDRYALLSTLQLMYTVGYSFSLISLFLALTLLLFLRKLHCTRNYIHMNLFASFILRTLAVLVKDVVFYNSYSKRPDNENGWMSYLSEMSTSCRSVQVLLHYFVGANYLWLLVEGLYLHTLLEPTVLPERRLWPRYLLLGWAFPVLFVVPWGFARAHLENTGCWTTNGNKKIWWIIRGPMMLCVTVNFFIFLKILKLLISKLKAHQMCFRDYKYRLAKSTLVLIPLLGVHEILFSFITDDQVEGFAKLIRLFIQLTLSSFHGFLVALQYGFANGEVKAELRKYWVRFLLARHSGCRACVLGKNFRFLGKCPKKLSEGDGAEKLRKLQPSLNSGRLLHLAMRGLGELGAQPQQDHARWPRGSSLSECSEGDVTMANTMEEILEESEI


Columns and labels:
[1] = target: human glucagon-like peptide 1 receptor (GLP-1 R) (human, UniProt P43220 24-463); assay: cell-based or functional assay
[2] = target: T1, human GLP-2 receptor (hGLP2-R); assay: cell-based or functional assay

EC50 GLP-1 (nM); cAMP response [1] [nM]	EC50 GLP-2 (nM); cAMP response [2] [nM]	Binder
0.25	0.16	HXEGTFTSELATILDXLAARDFIAWLIAHKITD (HELM PEPTIDE1{H.[Aib].E.G.T.F.T.S.E.L.A.T.I.L.D.K.L.A.A.R.D.F.I.A.W.L.I.A.H.K.I.T.D}|PEPTIDE2{[O=C(O)CCCCCCCCCCCCCCCCC(=O)[*:2]].[gGlu]}$PEPTIDE1,PEPTIDE2,16:R3-2:R2$$$V2.0; SMILES CC[C@H](C)[C@H](NC(=O)[C@H](CC(C)C)NC(=O)[C@H](Cc1c[nH]c2ccccc12)NC(=O)[C@H](C)NC(=O)[C@@H](NC(=O)[C@H](Cc1ccccc1)NC(=O)[C@H](CC(=O)O)NC(=O)[C@H](CCCNC(=N)N)NC(=O)[C@H](C)NC(=O)[C@H](C)NC(=O)[C@H](CC(C)C)NC(=O)[C@H](CCCCNC(=O)CC[C@H](NC(=O)CCCCCCCCCCCCCCCCC(=O)O)C(=O)O)NC(=O)[C@H](CC(=O)O)NC(=O)[C@H](CC(C)C)NC(=O)[C@@H](NC(=O)[C@@H](NC(=O)[C@H](C)NC(=O)[C@H](CC(C)C)NC(=O)[C@H](CCC(=O)O)NC(=O)[C@H](CO)NC(=O)[C@@H](NC(=O)[C@H](Cc1ccccc1)NC(=O)[C@@H](NC(=O)CNC(=O)[C@H](CCC(=O)O)NC(=O)C(C)(C)NC(=O)[C@@H](N)Cc1c[nH]cn1)[C@@H](C)O)[C@@H](C)O)[C@@H](C)O)[C@@H](C)CC)[C@@H](C)CC)C(=O)N[C@@H](C)C(=O)N[C@@H](Cc1c[nH]cn1)C(=O)N[C@@H](CCCCN)C(=O)N[C@H](C(=O)N[C@H](C(=O)N[C@@H](CC(=O)O)C(=O)O)[C@@H](C)O)[C@@H](C)CC) [Compound 15]
0.073	0.68	HXEGTFTSELATILDXEAARLFIAWLIEHKITD (HELM PEPTIDE1{H.[Aib].E.G.T.F.T.S.E.L.A.T.I.L.D.K.E.A.A.R.L.F.I.A.W.L.I.E.H.K.I.T.D}|PEPTIDE2{[O=C(O)CCCCCCCCCCCCCCCCC(=O)[*:2]].[gGlu]}$PEPTIDE1,PEPTIDE2,16:R3-2:R2$$$V2.0; SMILES CC[C@H](C)[C@H](NC(=O)[C@H](Cc1ccccc1)NC(=O)[C@H](CC(C)C)NC(=O)[C@H](CCCNC(=N)N)NC(=O)[C@H](C)NC(=O)[C@H](C)NC(=O)[C@H](CCC(=O)O)NC(=O)[C@H](CCCCNC(=O)CC[C@H](NC(=O)CCCCCCCCCCCCCCCCC(=O)O)C(=O)O)NC(=O)[C@H](CC(=O)O)NC(=O)[C@H](CC(C)C)NC(=O)[C@@H](NC(=O)[C@@H](NC(=O)[C@H](C)NC(=O)[C@H](CC(C)C)NC(=O)[C@H](CCC(=O)O)NC(=O)[C@H](CO)NC(=O)[C@@H](NC(=O)[C@H](Cc1ccccc1)NC(=O)[C@@H](NC(=O)CNC(=O)[C@H](CCC(=O)O)NC(=O)C(C)(C)NC(=O)[C@@H](N)Cc1c[nH]cn1)[C@@H](C)O)[C@@H](C)O)[C@@H](C)O)[C@@H](C)CC)C(=O)N[C@@H](C)C(=O)N[C@@H](Cc1c[nH]c2ccccc12)C(=O)N[C@@H](CC(C)C)C(=O)N[C@H](C(=O)N[C@@H](CCC(=O)O)C(=O)N[C@@H](Cc1c[nH]cn1)C(=O)N[C@@H](CCCCN)C(=O)N[C@H](C(=O)N[C@H](C(=O)N[C@@H](CC(=O)O)C(=O)O)[C@@H](C)O)[C@@H](C)CC)[C@@H](C)CC) [Compound 16]
